In a protein production outcome set (Wang et al. 2014):

Experiment: label from the status in PepcDB records

Sequence	protein production
MELKTAADSNFSESEESPETKGIRILEGDPKKAIIKLAVPMIVAMSVQTLYQLIDTFWVSGLGADALAAMGFVFPFYFISMALSNGLGIGGGAAISRKIGARDKAGADNVAVHTIIIMMLLVLIFTIPFYVFAPHIFSLVGAGKTTDLAVAYARVIFLGSIVIFFTNVANSILRSEGDSKRAMYAMVLGAALNIVIDPIFIYTFKMGIAGAAWATLLSLAVSSAMMLNWLFFKKDTFVSFDFKDFSFEKSIINDIFRIAVPASAQQLSMSLSMLVLNLIIVNVSSTDGVAVYSTGWRVATIAIAPLVGIATAVVSVSGAAFGAKDFEKAKTAHTYAVKVGLLIEGGVAAFTFIFAPQIAAVFTQTEEAAHIAPDLIQFLRIICIFYPTVSLGMLSTSLFQGAGKGFSALTANLLRTIVFTPLFAAFFAFNLNMGQVGAWWGIVAGNAIGAGVVYVWVKLYLSTILKTGPLHKPFEQGI	failed
MKRTHLASFSNRDKTQEEEGEDGNGDNRVIMNHYKNYEAGLIPWPPKNYTCSFCRREFRSAQALGGHMNVHRRDRAKLRQIPSWLFEPHHHTPIANPNPNFSSSSSSSTTTAHLEPSLTNQRSKTTPFPSARFDLLDSTTSYGGLMMDREKNKSNVCSREIKKSAIDACHSVRCEISRGDLMNKKDDQVMGLELGMSLRNPNQVLDLELRLGYL	not failed
MDLDPTLLTWAFVVGGALLMLIEAVVPGGIAFFLGIGGVVVGGLRALGLLVDPLSSVVTWVFLSTGLTIALRPLMLRFVQGDVSLAMTDEDAEAMGETVTVVEAVGPESPGRIRFRGATWDARTLEGRLPDGAEAQLLYRDNLTWVVEPADHADLDAELSAAIGSDVSEGDANRSPSTDDTTSDDSGLGYDPSARSSS	failed
MAKSKKIVFTGGGTVGHVTLNLILIPKFLKDGWEVHYIGDKHGVEHEQIDKSGLDVTFHSIATGKLRRYFSWQNMLDVFKVGWGILQSIAIIAKIRPQALFSKGGFVSVPPVIASKLLRVPVYVHESDLSMGLANKIAYKFATTMFTTFEQSKTLVKTRHVGAITKVGMTRFDNSDQLDKIKEQFDEKLKTVLFIGGSAGAKVFN	failed
MASMTMTSSFLPTVSNLPANISSNSRRSLTVVKASGSENTTSLENKKQEQSMKMRRDLVFTAAAAAVCSLAKVAMADDEPKRGTEAAKKKYAPVCVTMPTAKICRN	failed
KMFFKVIDTLSDNYEKEMLLLEAEAKEQYYQELEKSSREVRKIKHDLKNMLLAICGKAKKQNEISEEIYKIIKELDESDKKIYTSNVVINTIINHKISQAKKLEIKTDVNIKVSKAIHIDYKDAGILLGNILDNAIEACEKIKKKERWIKIDMLHNKNTLFIEVCNSKGKELTNISKSSKSDAHNHGIGISSIKAITKKYDGYVEFVDKGEEFEVVVNLYGMSF	failed
MVVSIGVFDGVHIGHQKVLRTMKEIAFFRKDDSLIYTISYPPEYFLPDFPGLLMTVESRVEMLSRYARTVVLDFFRIKDLTPEGFVERYLSGVSAVVVGRDFRFGKNASGNASFLRKKGVEVYEIEDVVVQGKRVSSSLIRNLVQEGRVEEIPAYLGRYFEIEGIVHKDREFGRKLGFPTANIDRGNEKLVDLKRGVYLVRVHLPDGKKKFGVMNVGFRPTVGDARNVKYEVYILDFEGDLYGQRLKLEVLKFMRDEKKFDSIEELKAAIDQDVKSARNMIDDIINSKFEKEG	not failed
MPRLARSLPLLLGLGLAAWAGATDGPLPVPADGVKLEAPTTASPSIRLVIPAEEIERRALAEYRQIIDNAAREGALAPDSVPDLARIRAIVQRLVPHAPRWNPDAAHWQWEVNLIGAAQVNAFCMPGGKIAVFSGLLERFRLTDDELAMALGHEIAHALREHARARAGQREITNLGANVISQLFGFGNRGDAGFGEGAKMHLLAFSRAEETEADLIGMDIAARAGFDPRAALTLWQKMGSIGGAEQKQFLSTHPSGRSRMTVLSRHLPETLPLYADALRMPMAKLPEYRSNMQYLGAAPVDNGDEAPMRPMVQQ	failed
MVLEYVYCLLAFCLYFMAYCINPDCSQRENPDTSAVCQNCGTPLILQNRYRLRHFLRTDRGSYTEVFAIEDLVNRDQPKVLKSLKEVTPQLERLFQQEASILNTLRHPGLPIGEALFPLVLNTGRQLWCFVMEKIPGEDLQTWLSHHQYVTSYKTALDWLKQLTQILQFVHEEKFFHRDIKPANIMVCPDGKLVLIDFGAARKVTQTIINRESVTIVHSLGYTAPEQRDGHAVVQSDFYALGRTLIYLLTGIDPTGDRAQDLLNWSKYIQDPKTPKKFISLLQVMTDSHPYHRPPTAQAILEKIEKIDQHSHQWPKLLLSATCGVLLLFAGKSLYQEITLPRTCDNILNDYLSCGEESLTPSSFWGNSQPPPAKQLGMEQYRNRNFGAAVNFLETAFQQESDPETLIYLNNAKIHQQFPANQIYTIAVAVPLERRTDIGREILRGVAQAQTEALKKGRALRIIIADDSNREDSKTGNNARKIAQHLVKYRDLLAVLGHYSSEATKNSLPIYSQARVVLISATSTSQNLKDPFFFRTVPSDRIAAQKMVTYLLSALKQNQVAIFYSRGSEYAESLSQAVRESTKSLPLKVIDHQAAFNLASDRFNAITALNQAQTQGAKAIVLIPDAGVGLYNAIPNALRVIQSNINQVWIVAGDSLYSSDSFTSEKAFSSPEIKYTAWAVFWHPLNEINSTFVKEVQNLWKIDILSILSNTNITWRTATSYDATLVLSQAITQNPTRLGIKKTLSQPQFSVTGATGVIQFAGSDRQNGKITMVRVQRNCDDNGFFFIPSDRSLQCQ	failed
MRNVLITGATSGIGLSLVEKYLQAGDKVYACGRNFQAYLKSSSLIDAEKSDKLVKIVFDMNHHDAIIDVLTEVESLDIAILNAGTCEYIDDAMGFDAELFERVINTNVISIGYCLQALLPKMKQKGHLALMGSSAAFVPFQRAEAYGASKAAIHYLAQSLQLDIPKERLTISVIAPGFVKTPLTDKNDFPMPMLIEPDKAADHIINGINNNKQHIHFPFPFTRFLILMGALPSCIWQWMALRMKRK	failed
NLNSIQNFGAIDILCTDKTGTLTQDKVVLEYHLNVNGEDDTRVLRHAYLNSYFQTGYKNLMDLAIIHKTEEEEAADSRLIDLSENYVKVDEIPFDFTRRRLTTVVQDNKGKTQMVTKGAVEEMLSICAFAECNGGVQPLTDDVRYRILETVDNLNDKGFRVLAIAQKSNPSPIGAFGVKDECDMVLIGYLAFLDP	failed
GSLQDNSSYPDEPWRITEEQREYYVNQFRSLQPDPSSFISGSVAKNFFTKSKLSIPELSYIWELSDADCDGALTLPEFCAAFHLIVARKNGYPLPEGLPPTLQPEFIVTD	not failed
MFKRCFSPLTLVNQLALIVMLSTAIGVAGMAVSGWLVQGVQGSAHAINKAGSLRMQSYRLLAAVPLDAKDQKLLDEMEQTAFSPELTRAAERDGQQKQLKALQDYWHNELSPRLQHAQNAHAVAEDITRFVAGLDRLVTSFDHTTELRIERVVLVHRVMAIFMALLLVFTIIWLRVRLLQPWKQLLSMARAVSQRDFTQRANISGRNEMAALGSALNNMSEELAESYAVLEQRVQEKTAGLEHKNQILSFLWQANRRLHSQAPLCERLSPVLNGLQNLTQLHDIELRVYDLEDEDNHQEFTCQSDISCDDKGCHLCPRSALPMINGGTTLKWRLTDSHTQYGILLATLPYGRHLSHDQQQLVDTLVEQLTATLALDRHQERQQRLIVMEERATIARELHDSIAQSLSCMKMQVSCLQMQGDALPESSRELLSQIRNELNCSWAQLRELLTTFRLQLTEPGLRPALEASCQEFSARFGFTVKLDYQLPPRLVPSHQAIHLLQIAREAPSNALKHSHADDVVVTVTQCGKQVKLKVQDNGCGVPENAERSNHYGMIIMRDRAQSLRGDCQVRRRETGGTEVTVTFIPETNFTETQGDTHE	failed
MWTDAGGQVHEAASGDVRIASLVPSITELLFDLGLADQLVARTGFCIHPEPAVRAVAKVGGTKDVKLDRLRALAPTHVVVNIDENRRETVDEIRTFVPHVIVTHPCAPEDNLALYRLLGGIFGRRPQAEALVGQLRGELDAIQAQTWPARRVLYAIWQDPWMTVSRATYISRMLALVNWATWPDDADTSDTPAACVDGDCSRPNAPGERYPTFRWSDALVRELDAVLLSTEPYRFTEDHADALERQIGKPVLLVDGEMLSWYGSRAVAGARYLRSLAQGFLEHHHHHH	not failed
MAYGDKDEVLSVDVGSNAKVMKHLDGDDAMKKAQVRGRSGQEFSKETTKMMMKKTTKKETNVEEEDDLVAYTADYWKPRHHPPKNN	failed
MTEPCRIIGVLDNGAEGLTPQALAYLHAADLVIGAGRTLALFEAHLAEGAECRDLGGRLAQVPDWIAEARRNGKRVAVLATGDPLCHGIAGYLGNKLGREALEILPNVSTIQLACARLGLPWQDMAIGSVHSRDAGDWTPGAGPGHGLYGLLQKLRQADLMGVFTSPENGPDRIARMLRAEGLDEEFEMAIAERLLQADERIHGWLGIAEAAGQCFADPNVVLLRRRPCEREALFGLPDTRFRQRAPDKGLITKREVRAVSLARLALRPDSIVWDIGAGSGAVGLEAARLCPLGHVYAIEKNVEDFAIALSNRESLRVSNYTLVQAKAPRELDGWPDPHGVFIGGSGGELRELIQICLRRLRTGGWLVMNFATLENLAAAVDALKASGASWDVTQLQAARSRPILDMHRLQAENPVWIVCAQRENNE	failed
MLKELFVNLTILITFNYLFTHLFKERLVHKKDSISFQAVKGLACGLLGVILMVFGFTYQHSIIDLRNIPIMIAALYGGWVSTATALAMITAGRLLITMNTSALYSVIIICIAAIPSLIVSRRKKVQLKHAFYLLIITNSLISFSFYFLIDLHSYELHLYFWIISIAGGMLSLYIIDHETNAHLLFKQYKFQAHFDFLTGVYNRRKFEETTKALYQQAADTPHFQFALIYMDIDHFKTINDQYGHHEGDQVLKELGLRLKQTIRNTDPAARIGGEEFAVLLPNCSLDKAARIAERIRSTVSDAPIVLTNGDELSVTISLGAAHYPNNTEQPGSLPILADQMLYKAKETGRNRVCFSEKKE	failed
MNLILTILSALGSFIVTNVDDIFVLMLLFSQARSQAKTGNSGIVSMESKGNRIYPRDIVIGQYLGFALLVLISLLATFGVTLIPDQWVGLLGLIPIYLGVKLFIKGEDEDEGNILSNLNKFNKFYLSVAFITFANGGDNIGIYVPFFSTLNNNQLIITVVTFFIMVAVWCLIGYRLARFRYVSETLEKYGRWIIPIVFIGLGIYIMVENETFRAILSLVN	failed
HYRRALSGPVDPGLAVFSAYWDRGVSCNPAAIAAKLAELAPHIHPVWVVARNKAALLPPGTDHIVPGTRRYWEVMARAKYLVNNVNFPNSVVKRPDAIHLQTHHGTPLKRMGLDQREFPAASKGLDFGALLARIDKWDYSVSANSHSTRMWERAYPSHYISLDHGYPRNDVFYSATADDIRAIRDRLGIPPGRRAILYAPTHRDYEAGWTPRLDLASLADRLGEETVLLVRGHYFYGGAASPLAGLRRSGRVIDVSTYDPVEELCLAADALVTDYSSIMFDYANLNRPIVIYADDWETYAKTRGVYFDLMAEGPGQVTRTQDELAAVFESGAWRDEGARKALSAFRRRFCEFDDGRAAERVVR	failed
MSWTVDIPKEVLPDLPPLPEGMQQQFEDTISRDAKQQPTWDRAQAENVRKILESVPPIVVAPEVLELKQKLADVANGKAFLLQGGDCAETFESNTEPHIRANVKTLLQMAVVLTYGASTPVIKMARIAGQYAKPRSSDLDGNGLPNYRGDIVNGVEATPEARRHDPARMIRAYANASAAMNLVRALTSSGTADLYRLSEWNREFVANSPAGARYEALAREIDSGLRFMEACGVSDESLRAADIYCSHEALLVDYERSMLRLATDEEGNEELYDLSAHQLWIGERTRGMDDFHVNFASMISNPIGIKIGPGITPEEAVAYADKLDPNFEPGRLTIVARMGHDKVRSVLPGVIQAVEASGHKVIWQSDPMHGNTFTASNGYKTRHFDKVIDEVQGFFEVHRALGTHPGGIHIEFTGEDVTECLGGAEDITDVDLPGRYESACDPRLNTQQSLELAFLVAEMLRN	failed
